The chains are these.
T1: human gp39 (cell surface) (human, UniProt P29965 1-261)
T1 construct: whole, on cells; this was read as mgp39-CHO (membrane gp39); also called CD40 ligand; CD40L
T1 sequence (looked up): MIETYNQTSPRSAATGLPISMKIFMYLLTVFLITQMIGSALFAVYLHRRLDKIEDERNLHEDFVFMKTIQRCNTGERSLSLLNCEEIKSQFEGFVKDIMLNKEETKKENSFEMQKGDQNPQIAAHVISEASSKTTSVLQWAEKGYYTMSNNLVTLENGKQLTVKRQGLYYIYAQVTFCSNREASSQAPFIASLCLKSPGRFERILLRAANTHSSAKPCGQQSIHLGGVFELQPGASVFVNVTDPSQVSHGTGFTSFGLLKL

B1: humanized 24-31 (version 1) (antibody, V domains shown)
VH: EVQLQESGPGLVKPSETLSLTCTVSGDSITNGFWIWIRKPPGNKLEYMGYISYSGSTYYNPSLKSRISISRDTSKNQFSLKLSSVTAADTGVYYCACRSYGRTPYYFDFWGQGTTLTVSS
VL: DIVMTQSPSFLSASVGDRVTITCKASQNVITAVAWYQQKPGKSPKLLIYSASNRYTGVPDRFSGSGSGTDFTLTISSLQPEDFADYFCQQYNSYPYTFGGGTKLEIK
notes: also called h24-31; humanized Version 1
B2: murine antibody 24-31 (antibody, mouse IgG1, V domains shown)
VH: EVQLQESGPSLVKPSQTLSLTCSVTGDSITNGFWIWIRKFPGNKLEYMGYISYSGSTYYNPSLKSRISITRDTSQNQFYLQLNSVTTEDTGTYYCACRSYGRTPYYFDFWGQGTTLTVSS
VL: B1 VL with P8Q, S9K, L11M, A13T, T20S, K42Q, S77N, L78M, P80S, F83L
notes: Murine IgG1 from hybridoma; also called anti-gp39 24-31 mAb; murine 24-31
B3: humanized 24-31 (version 2) (antibody, V domains shown)
VH: B1 VH
VL: DIVMTQSPDSLAVSLGERATINCKASQNVITAVAWYQQKPGQSPKLLIYSASNRYTGVPDRFSGSGSGTDFTLTISSLQAEDVADYFCQQYNSYPYTFGGGTKLEIK
notes: It was expressed from N5KG1 with human kappa and gamma 1 constant regions; also called humanized Version 2; #2 VL with #1 VH

Numbering of substitutions follows the chain as printed.

Here are results for three molecules from patent US7122187 (IDEC PHARMACEUTICALS, dated 2006).

The test concerns the target T1, human gp39 (cell surface). Description: Scatchard analysis, 125I-labelled antibody competed with unlabelled antibody on gp39-CHO cells. As to the method: ^125I-labeled antibody was mixed and incubated with non-labeled antibody in a dilution series. Based on the total amount of bound antibody and the amount of free antibody, a Scatchard plot was generated from a […] graph. The total antibody concentration was based on a standard size of 75 kD for one active site.
The Kd was calculated by generating a "best fit" line. The inverse of the slope of the curve is the Kd. The correlation coefficient, r^2, was also computed.
As a reminder, the Kd is a measure of binding affinity in units of concentration. Low readings indicate a tighter complex, high ones a looser complex. B1: the affinity, expressed as Kd, was 5.6 nM.

Consider B2, for which binding was characterised by a dissociation constant (Kd) of 8.51 nM.

The molecule B3 showed a Kd of 14 nM.
